Data from article PMC2671406 (PLoS ONE, 2009).

What was measured:
Details in all cases: both partners purified
[1] = target: T1, Human (vertebrate) calmodulin (human, UniProt P0DP23 1-149); experiment: ITC; CaM (0.1 mM) in the cell, CnA-CBD peptide (1 mM) in the syringe, 5 µl injections; +35°C; 10 mM HEPES pH 7.5, 100 mM NaCl, 10 mM CaCl2
T1 construct: also called CaM

[2] = target: T1, Human (vertebrate) calmodulin; experiment: SEC; CaM (200 µl at 176 µM) on Superdex 75 HR 10/30 with and without excess (625 µM) CnA-CBD peptide; 50 mM HEPES pH 7.5, 150 mM NaCl, 4 mM CaCl2
[3] = target: T1, Human (vertebrate) calmodulin; experiment: ITC; CaM (0.1 mM) in the cell, CnA-CBD peptide (1 mM) in the syringe, 5 µl injections; +30°C; 10 mM HEPES pH 7.5, 100 mM NaCl, 10 mM CaCl2

Ka [1]: 1.4e+06 M⁻¹
Kd [1]: 700 nM
dH [1]: -5.7 kcal/mol
stoichiometry N [2]: 1
Ka [3]: 3.5e+06 M⁻¹
Kd [3]: 300 nM
dH [3]: -1.8 kcal/mol
B1: Peptide corresponding to the CaM binding domain of calcineurin A (residues 395-411) (peptide)
peptide: VIRNKIRAIGKMARVFS
notes: also called CnA-CBD; CnA-CBD peptide; source: bought: GL Biochem (Shanghai, China)
